According to the nanobody polyreactivity screen of Harvey et al. (2022):

Test: yeast display, Sf9 membrane polyspecificity reagent, FACS + sequencing; frameworks hold sequencing errors
In short: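 Galactose induction of a Saccharomyces cerevisiae BJ5465 synthetic nanobody display library ran 36–48 hours. The cells were then stained for 1 hour at 4 °C with 10% biotinylated, detergent-solubilized Sf9 membrane reagent, pulled down on streptavidin microbeads and FACS-sorted into low and high (top ~1%) gates on expression and reagent-binding fluorescence. Labels for polyreactivity follow the gate of origin.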

Sequence	polyreactivity (PSR sort gate)
QVQLVESGGGLVQAGGSLRLSCAASGSIFVGNAMGWYRQAPGKERELVAAISWGGARTYYADSVKGRFTISRDNAKNTVYLQMNSLKQEDTAVYYCAAGSSSRSTTHYYYWGQGTQVTVSS	high polyreactivity
QVQLVESGGGLVQAGGSLRLSCAASGFIFTWYAMGWYRQAPGKEREFVAAITSRGTSTYYADSVKGRFTISRDNAKNTVYLQMNSLKPEDTAVYYCAARASYTRRHVGRPYDYWGQGTQVTVSS	high polyreactivity
QVQLVESGGGLVQAGGSLRLSCGASGRIFNSNAMGWYRQAPGKERELVAASSWSGGTSYYADSVKGRFTISRDNAKNTVYLQLNSLKPEDTAVYYCNAVGLHWWPGDYWGQGTQVTVSS	low polyreactivity
QVQLVESGGRLVQAGGSLRLSCAASGFIFEDYAMGWYRQAPGKERELVAAITWRGGSTYYADSVKGRFTISRDHAKTTVYLQMNSLKPEDTAVYYCAAEDYWGWRDYWGQGTQVTVSS	high polyreactivity
QVQLVESGGGIVQAGGSLRLSCAASGGTFIRYAMGWYRQAPGKEREFVAAISASGGSTYYADSVKGRFTISRDNAKNTVYLQMNSLKPEDTAVYYCAARRTNLPVKFYYWGQGTQVTVSS	high polyreactivity
QVQLGESGGGLVQAGGSLRLSCAASGSIFFLYAMGWYRQAPGKERELVAAISLSTGNTYYADSVKGRFTISRDNAKNTVYVQKNSLKPEDTAVYYCAAEDYWSAYYWGQGTQVTVSS	high polyreactivity
QVQLVESGGGLVQAGGSLRLSCAASGSIFSFYAMGWYRQAPGKRELVAAISGNGGSTFYADSVKGRFTISRDNAKNTVYLQMNSLKPEDTAVYYCAAYSYRYKYYYWGQGTQVTVSS	high polyreactivity
QVQLVESGGGLVQAGGSLRLSCAASGSFLEPYSMGRYRQATGKERELVAAISFSDTSTYYADSVKGRFTISRDNAKNTVYLQMNSLKQEDTAVYYCAATYVLYWGYEYDYWGQGTQVTVSS	high polyreactivity
QVQLVESGGGLVQAGGSLRLSCAATGFIFDSYAMGWYRQAPGKERELVAAISWSGGRTYYADSVKGRFTISRDNAKNTVYLQMNSLKPEDTAVYYCNVRTKLSTSYDYWGQGTQVTVSS	high polyreactivity
QVQLVESGGCLVQAGGSLRLSCAASGRNFGTYAMGWYRQATGKERELVAASTRGGTTYYADSVKGRFTISRDNAKNTVYLQMNSLTQEDTAVYYCATGPAIRYDYWGQGTQVTVSS	low polyreactivity
QVQLVESGGGLVQAGGSLRLSCAASGIIFGIYDMGWYRQAPGKESELVAAIRRSGGSTYYADSVKGRFTISRDNAKNTVYLQMNSLKPEDTAVYYCAATRHSRVRGGDYWGQGTQVTVSS	low polyreactivity
QVQLVESGGGLVQAGGSLRLSCAASGSTFRRYAMGWYRPAPGKERELVAAISRSGGTTYYADSVKGRFTISRDNAKNTVYFQMNSLKPEDTAVYYCNARYPVVRYDYWGQGTQVTVSS	high polyreactivity
QVQLVESGGGLVQAGGSLRLICAASGLIFGPYAMGWYRQAPGKEREFVAAITRSDGSTYYADSVKGRFTISRDNAKNTVFLQMNSLNPEDTAVYYCNADAGYVWFGGAYYWPYDYWRQGTQVTVSS	low polyreactivity
QVKLVESAGGLVQAGGSLRLSCAASGSIFNPYDMGWYRQAPGKERELVAAIDWSGGSTYYADSVKGRFTISRDNAKNTVYLQMNSLKPEDTAVYYCNAESYQDTLFGADNDYDYWGQGTQVTVSS	low polyreactivity
QVQLVESGGGLVQAGGSLRLSCAASGITFSFYAMGWYRPAPGKERELVAAINGRGGRTYYADSVKGRFTISRDNAKNTVYLQMNSLKPEDTAVYYCAAVVWRTDYDYWGQGTQVTVSS	low polyreactivity
QVQLVESGGGLVQAGGSHRLSCAASGRIFGTYAMGWYRQAPGKDRELVAAISFSGGSTYYADSVKGRFTISRDNAKNTVYLQMNSLKPDDTAVYYGAAGYRTYYGYRYGYWGQGTQVTVSS	high polyreactivity
QVQLVESGGGLVQAGGSLRLSCAASGFTFRIYAMGWYRQAPGKERELVAAISWAGGSTFYADSVKGRFTISRDNAKNTVYLQMNSLKPEDTAVYYCAADYGYFEYDYWGQGTQVTVSS	low polyreactivity
QVQLVESGGGLVQAGGSLRLSCAASGRIFGRYVMGWYRQAPGKERELVAVITGGGTRTYYADSVKGRFTISRDNAKNTVYLQMNSLKPEDTAVYYCAAPYRPDVDYWGQGTQVTVSS	high polyreactivity
QVQLVESGGGLVQAGGSLRLSCASSGRTFRYYTMGWYRQAPGKEREFVAAISSTGGTYYADSVKGRFTISRDNAKNTVYFQMNSLIPVDTAVYYCAATFIKVVVNVQLYDYDYWGQGTQVTVSS	low polyreactivity
QVQLVESAGGLVQAGGSLRLSGSASGIIIASNGMGWYRQPPGKERELVAAISSGGSTNYADSVKGRFTISRDNAKNTVYLQMNSLKPEDTAVYYCADDRWYREYDYWGQGTQVTVSS	low polyreactivity
QVHLVESGGGLVQAGGSLRLSCAASGRTFYSYAMGWYRQAHGKERELVAAINTSGGRKHYADSVKGRFTISRDNAKNTVYLQMNSLKPEDTAVYYCAARYLGGRLSGDYSRYYWGQGTQVTVSS	high polyreactivity

Sequence	polyreactivity (PSR sort gate)
QVQLVESGGGLVQAGGSLPLSCAASGSIFGGNDMGWYRQAPGKERELVAAITSSGGSTYYADSVKGRFTITRDNAKITVYCQMNRLKPEVTAVYYCNADYYGPYRDYGYWGQGTQVTVSS	low polyreactivity
QDQLVESGGGLVQAGGSLRLSCAASGGIFFYYVMGWYRKAPGKEREFVAAITSGGSTYYADSVKGRFTISGDNAKNTVYLQMNRLKPEDTAVYYCNARDVVDYSVWSRYAYDYWGQGTQVTVSS	low polyreactivity
QVQLVESGGGLVQAGGSLRLSCAASGSTFTKNVMGWYRQAPGKERELVAAISSGGRTNYADSVKGRFTISRDNAKNTVYLQMNSLKPEDTAVYYCAADVGYFKSDYWGQGTQVTVSS	low polyreactivity
QVQLVESGGGLVQAGGSLRLSCAASGSIFGYYALGWSRQAPGKERELVAVITWNTGNTYYADSVKGRFTISRDNAKNTVYLEMNSLKPEDTAVYYCAADQTGWGDTYDYWGQGTQVTVSS	low polyreactivity
QVQLVESGGGLVKAGGILRLICVASGRTFLRYGMGWYRQAPGKERELVAAISIVGNTYYADSVKGRFTISRDNAKNTVYLQMNSLKPEDTAVYYCAAGRRFGRDYWGQGTQVTVSS	high polyreactivity
QVQLVESGGGLVQAGGSLRLSCAASGSIFKYYAMGWYRQAPGKERELVAAITTTGGITYYADSVNGRFTISRDNAKNTDYLQMISLKPEDTAVYYCNAYYPIRSSPYGYYYCGQGTQVTVSS	high polyreactivity
QVQLVESGGGLVQAGGSLRLSCAASGIIFHPYAMGWYRQAPGKERELVAVITWPGDSTYYADSVKGRFTISRDNAKNTVYLQMNSLKPEDTAVYYCNAAVEGSLNGYEYWGQGTQVTVSS	low polyreactivity
QVQLVESGGGLVQAGGTLRLSCAASGLIFFFYAMGWYRQAPGKERELVAAISDDGVSTDYADSVKGRFTISRDNAKNTVYLQMNSLKPEDTAVYYCAAKTERVYPWFSFGYWGQGTQVTVSS	low polyreactivity
QVQLVESGGGLVQAGGSLRLSCAASGRIFQFYTMGWYRQAPGKERELVASISSAGSTNYADSVKGRFTISRDNAKNTVYLQMNSLKPEDTAVYYCRYTYYWMGYWGQGTQVTVSS	high polyreactivity
QVQLVESGGGLVQAGGSLRLSCAASGRIFSRNAMGWYRQAPGKEREFVAAISRRGTSTYYADSVKGRFTISRDNAKNTVYLQMNSLIPEDTAVYYCNAGGSPWYKPVYYRALYDYWGQGTQVTVSS	high polyreactivity
QVQIVESGGGLVEAGGSLRLSCAASGRTFWYIAMGWYRQSPGKASELVAAISYTGSRTYYADSVKGRFTISRYNAKNTVYLQMNSLKPDDTAVYYCNALARRPDAYAHYGYWGQGTQVSVSS	high polyreactivity
QVQLVESGGGLVQAGGSLRLSCAASGSIFGRNAMGWYRQAPGKERELVAAITWSGDSTYYADSVKGRFTISRDNAKNSVYLQMNSLKPEVTAVYYCAVKSYVPYLSYIYSFGYWGQGTQVTVSS	low polyreactivity
QVQLVESGGCLVQAGGSLRLSCAASGRIFNYNAMGWYRQAPGKARELVAVITSGDSTNYADSVKGRFTISRDNAKNNVYLQMNSLKPEDTAVYYCAAEYYSIRYGPHSIEVYGMDYWGQGTQVTVSS	low polyreactivity
QVQLVESGGGLVQAGGSLRLSCAAYGFIFWYYDMGWYRQAPGKETELVAGITSGGSTNYEDSVKGRFTISRDNATNTVYLQMNRLKPEDTAVYYCAATYYGYHIRDDYWGQGTLVTVSS	low polyreactivity
QDQLVESGGGLVQAGGSLRLSCAASGITFYTYAMGWSRQAPGKERELVAAISRSGGSTYYADSVKGRITISRDNAKYTVYLQMNSLKPEDSAVYYCAAVYRGRDMDYWGLGTQVTVSS	high polyreactivity
QVQLVESGGGLVQAGGSLRLSCAASGGTFGYNAMGWYRQAPGKERELVADITRGGITYYADSVKGRFTISRDNAKNTVYLQMNSLKPEDTAVYYCNAEYYVFSYSYGGVLRGDYWGQGTQVTVSS	high polyreactivity
QVQLVESGGGLVQAGGSLRLTCAASGSIFVQNAMGWYRQEPGKERELVATISRRGGSTYYADSVKGRFTISRDNAKNTVYLQMNSLKPEDPAVYYSAARKLRTLWGYWGQGTQVTVSS	high polyreactivity
QVQLVESGGGLVQAGGSLRLSCAASGITFLKYAMGWYRQATGKEREFVAAISRRGGSTYYADSVKGRFTISRDNAKNTVYLQMNSLKPEDTAVYYCAALTVRGTWSQNDYWGQGTQVTVSS	low polyreactivity
QVQLVESGGGLVQAGGSLRLSCAASGSIFARYAMGWYRQAPGKERELVAAITGRGGSTYYADSVKGRFTISRDNAKNTVYLHMNSLKPEDTAVYYCAPKDVRRTRGGSGDYWGQGTQVTVSS	high polyreactivity
QVQLVESGGGLVQAGGSLRLSCAASGRIFAYYAMGWYRQAPGKERELVAAINTSGATTNYADSVKGRFTISRDKAKNTVYLQMNSLKPEDTAVYYCAAWKGVYTYNYWGQGTQVTVSS	high polyreactivity
